Results published in US20120015885A1.

Molecular target: CaMKIV
Assay: cell-based or functional assay

B1: tatCN21 (peptide)
peptide: YGRKKRRQRRRKRPPKLGQIGRSKRVVIEDDR
modifications: not checked
kinase activity in a kinase panel, 5 µM tatCN21, reduction: 35%
